Blank lines part the entries; values can stand above or below the binder they belong to.
Columns and labels:
[1] = target: Very late antigen-4 (VLA-4), alpha4beta1 integrin, on the surface of human reticulocytes and mononuclear leukocytes (human) (UniProt P13612); assay: flow cytometry saturation binding on isolated RBCs (reticulocytes) from 5 SCD donors, one-site binding analysis
[2] = target: Very late antigen-4 (VLA-4), alpha4beta1 integrin, on the surface of human reticulocytes and mononuclear leukocytes (human) (UniProt P13612); assay: flow cytometry saturation binding on isolated RBCs, individual SCD donors
[3] = target: Very late antigen-4 (VLA-4), alpha4beta1 integrin, on the surface of human reticulocytes and mononuclear leukocytes (human) (UniProt P13612); assay: cell-based or functional assay
[4] = target: Very late antigen-4 (VLA-4), alpha4beta1 integrin, on the surface of human reticulocytes and mononuclear leukocytes (human) (UniProt P13612); assay: flow cytometry saturation binding on isolated RBCs from 5 SCD donors
[5] = target: T1, Very late antigen-4 (VLA-4), alpha4beta1 integrin, on the surface of human reticulocytes and mononuclear … (human, UniProt P13612 34-1032; P05556 21-798); assay: flow cytometry saturation binding on isolated RBCs (reticulocytes) from 5 SCD donors, one-site binding analysis
T1 construct: whole, on cells; Endogenous integrin on primary human blood cells; also called α4β1 integrin; a4b1
Description: Flow cytometry was carried out using the BD FACS Canto II and data analysis was performed with the FACS Diva software. Data for leukocytes was acquired by gating based on forward and side scatter properties and CD45 staining of mononuclear cells. Natalizumab and IgG4 staining of the CD45 positive mononuclear cells were then determined. For erythrocytes, cells were gated for CD235a positive staining and examined for thiazole orange stained reticulocytes. Reticulocyte staining for VLA-4 with either natalizumab or an anti CD29 antibody was then determined and compared to IgG4 or isotype matched control antibody.
Fab arm exchange with endogenous IgG4 in humans, resulting in the production of antibodies that are potentially bispecific (Labrijn AF et al. Nat Biotechnol. 27(8):767-71 2009). This phenomenon has been reported for natalizumab as well, leading to the formation of a monovalent form of the antibody, with only one Fab arm specific for the α-subunit of VLA-4 (Rispens T et al. Anal Biochem. 411(2):271-6 2011; Shapiro RI et al. J Pharm Biomed Anal. 55(1):168-75 2011). To assess the impact of half-antibody exchange of natalizumab on saturation and adhesion of sickle cells, a synthetic monovalent form of natalizumab was used where 1 Fab arm was specific for VLA-4 and the other for CD4. […]

[6] = target: T1, Very late antigen-4 (VLA-4), …; assay: cell-based or functional assay

- EC50 [1]: 0.89 µg/mL
- fold change of EC50 against the divalent form [2]: 1.7 to 12 fold
- IC50 for inhibition of adhesion of reticulocytes in isolated RBC to VCAM-1 [3]: 0.37 µg/mL
- fold change of adhesion-inhibition IC50 against the divalent form [3]: 19 fold
- potency in blocking reticulocyte adhesion to VCAM-1 against divalent natalizumab (from IC50) [3]: 10 fold
- fold change of EC50 against the divalent form [4]: 7 fold
B1: synthetic monovalent form of natalizumab where 1 Fab arm was specific for VLA-4 and the other for CD4 (bispecific antibody, part only; not given: anti-CD4 arm and constant regions, V domains shown, not shown: another chain or arm of the molecule; a dimerising Fc or GST)
VH: QVQLVQSGAEVKKPGASVKVSCKASGFNIKDTYIHWVRQAPGQRLEWMGRIDPANGYTKYDPKFQGRVTITADTSASTAYMELSSLRSEDTAVYYCAREGYYGNYGVYAMDYWGQGTLVTVSS
VL: DIQMTQSPSSLSASVGDRVTITCKTSQDINKYMAWYQQTPGKAPRLLIHYTSALQPGIPSRFSGSGSGRDYTFTISSLQPEDIATYYCLQYDNLWTFGQGTKVEIK

- EC50 [5]: 0.14 µg/mL
- IC50 for blocking adhesion of whole blood leukocytes to VCAM-1 under flow, adult SCD blood [6]: 0.05 µg/mL
- IC50 for blocking adhesion of whole blood reticulocytes to VCAM-1 under flow, adult SCD blood [6]: 0.02 µg/mL
- IC50 for inhibition of adhesion of reticulocytes in isolated RBC to VCAM-1 [6]: 0.02 µg/mL
B2: Natalizumab (antibody, V domains shown)
VH: B1 VH
VL: B1 VL
notes: also called divalent natalizumab; divalent form
